According to paper PMC10770755, “Effects of specific disease mutations in non-muscle myosin 2A on its structure and function” (The Journal of Biological Chemistry, 2023):

B1: GST-LMM, wild type (light meromyosin of human non-muscle myosin 2A heavy chain, residues 1212-1960) (domain or fragment, UniProt P35579 1212-1960, looked up)
chain: KANLEKAKQTLENERGELANEVKVLLQGKGDSEHKRKKVEAQLQELQVKFNEGERVRTELADKVTKLQVELDNVTGLLSQSDSKSSKLTKDFSALESQLQDTQELLQEENRQKLSLSTKLKQVEDEKNSFREQLEEEEEAKHNLEKQIATLHAQVADMKKKMEDSVGCLETAEEVKRKLQKDLEGLSQRHEEKVAAYDKLEKTKTRLQQELDDLLVDLDHQRQSACNLEKKQKKFDQLLAEEKTISAKYAEERDRAEAEAREKETKALSLARALEEAMEQKAELERLNKQFRTEMEDLMSSKDDVGKSVHELEKSKRALEQQVEEMKTQLEELEDELQATEDAKLRLEVNLQAMKAQFERDLQGRDEQSEEKKKQLVRQVREMEAELEDERKQRSMAVAARKKLEMDLKDLEAHIDSANKNRDEAIKQLRKLQAQMKDCMRELDDTRASREEILAQAKENEKKLKSMEAEMIQLQEELAAAERAKRQAQQERDELADEIANSSGKGALALEEKRRLEARIAQLEEELEEEQGNTELINDRLKKANLQIDQINTDLNLERSHAQKNENARQQLERQNKELKVKLQEMEGTVKSKYKASITALEAKIAQLEEQLDNETKERQAACKQVRRTEKKLKDVLLQVDDERRNAEQYKDQADKASTRLKQLKRQLEEAEEEAQRANASRRKLQRELEDATETADAMNREVSSLKNKLRRGDLPFVVPRRMARKGAGDGSDEEVDGKADGAEAKPAE
notes: pGEX-6P-1 adds GST and a PreScission site at the N-terminus; GST kept for EM; also called WT GST-LMM; source: E. coli Rosetta 2, purified (Glutathione Sepharose 4B); not shown: GST, N-terminal, kept
B2: GST-LMM V1516M (domain or fragment, human, UniProt P35579 1212-1960, looked up)
chain: KANLEKAKQTLENERGELANEVKVLLQGKGDSEHKRKKVEAQLQELQVKFNEGERVRTELADKVTKLQVELDNVTGLLSQSDSKSSKLTKDFSALESQLQDTQELLQEENRQKLSLSTKLKQVEDEKNSFREQLEEEEEAKHNLEKQIATLHAQVADMKKKMEDSVGCLETAEEVKRKLQKDLEGLSQRHEEKVAAYDKLEKTKTRLQQELDDLLVDLDHQRQSACNLEKKQKKFDQLLAEEKTISAKYAEERDRAEAEAREKETKALSLARALEEAMEQKAELERLNKQFRTEMEDLMSSKDDMGKSVHELEKSKRALEQQVEEMKTQLEELEDELQATEDAKLRLEVNLQAMKAQFERDLQGRDEQSEEKKKQLVRQVREMEAELEDERKQRSMAVAARKKLEMDLKDLEAHIDSANKNRDEAIKQLRKLQAQMKDCMRELDDTRASREEILAQAKENEKKLKSMEAEMIQLQEELAAAERAKRQAQQERDELADEIANSSGKGALALEEKRRLEARIAQLEEELEEEQGNTELINDRLKKANLQIDQINTDLNLERSHAQKNENARQQLERQNKELKVKLQEMEGTVKSKYKASITALEAKIAQLEEQLDNETKERQAACKQVRRTEKKLKDVLLQVDDERRNAEQYKDQADKASTRLKQLKRQLEEAEEEAQRANASRRKLQRELEDATETADAMNREVSSLKNKLRRGDLPFVVPRRMARKGAGDGSDEEVDGKADGAEAKPAE
notes: MYH9 disease mutation; also called V1615M [sic]; source: E. coli Rosetta 2, purified (Glutathione Sepharose 4B); not shown: GST, N-terminal, kept
B3: GST-LMM E1841K (domain or fragment, human, UniProt P35579 1212-1960, looked up)
chain: KANLEKAKQTLENERGELANEVKVLLQGKGDSEHKRKKVEAQLQELQVKFNEGERVRTELADKVTKLQVELDNVTGLLSQSDSKSSKLTKDFSALESQLQDTQELLQEENRQKLSLSTKLKQVEDEKNSFREQLEEEEEAKHNLEKQIATLHAQVADMKKKMEDSVGCLETAEEVKRKLQKDLEGLSQRHEEKVAAYDKLEKTKTRLQQELDDLLVDLDHQRQSACNLEKKQKKFDQLLAEEKTISAKYAEERDRAEAEAREKETKALSLARALEEAMEQKAELERLNKQFRTEMEDLMSSKDDVGKSVHELEKSKRALEQQVEEMKTQLEELEDELQATEDAKLRLEVNLQAMKAQFERDLQGRDEQSEEKKKQLVRQVREMEAELEDERKQRSMAVAARKKLEMDLKDLEAHIDSANKNRDEAIKQLRKLQAQMKDCMRELDDTRASREEILAQAKENEKKLKSMEAEMIQLQEELAAAERAKRQAQQERDELADEIANSSGKGALALEEKRRLEARIAQLEEELEEEQGNTELINDRLKKANLQIDQINTDLNLERSHAQKNENARQQLERQNKELKVKLQEMEGTVKSKYKASITALEAKIAQLEEQLDNETKERQAACKQVRRTKKKLKDVLLQVDDERRNAEQYKDQADKASTRLKQLKRQLEEAEEEAQRANASRRKLQRELEDATETADAMNREVSSLKNKLRRGDLPFVVPRRMARKGAGDGSDEEVDGKADGAEAKPAE
notes: MYH9 disease mutation; also called E1814K [sic]; source: E. coli Rosetta 2, purified (Glutathione Sepharose 4B); not shown: GST, N-terminal, kept
B4: GST-LMM D1447G (domain or fragment, human, UniProt P35579 1212-1960, looked up)
chain: KANLEKAKQTLENERGELANEVKVLLQGKGDSEHKRKKVEAQLQELQVKFNEGERVRTELADKVTKLQVELDNVTGLLSQSDSKSSKLTKDFSALESQLQDTQELLQEENRQKLSLSTKLKQVEDEKNSFREQLEEEEEAKHNLEKQIATLHAQVADMKKKMEDSVGCLETAEEVKRKLQKDLEGLSQRHEEKVAAYDKLEKTKTRLQQELDDLLVDLDHQRQSACNLEKKQKKFGQLLAEEKTISAKYAEERDRAEAEAREKETKALSLARALEEAMEQKAELERLNKQFRTEMEDLMSSKDDVGKSVHELEKSKRALEQQVEEMKTQLEELEDELQATEDAKLRLEVNLQAMKAQFERDLQGRDEQSEEKKKQLVRQVREMEAELEDERKQRSMAVAARKKLEMDLKDLEAHIDSANKNRDEAIKQLRKLQAQMKDCMRELDDTRASREEILAQAKENEKKLKSMEAEMIQLQEELAAAERAKRQAQQERDELADEIANSSGKGALALEEKRRLEARIAQLEEELEEEQGNTELINDRLKKANLQIDQINTDLNLERSHAQKNENARQQLERQNKELKVKLQEMEGTVKSKYKASITALEAKIAQLEEQLDNETKERQAACKQVRRTEKKLKDVLLQVDDERRNAEQYKDQADKASTRLKQLKRQLEEAEEEAQRANASRRKLQRELEDATETADAMNREVSSLKNKLRRGDLPFVVPRRMARKGAGDGSDEEVDGKADGAEAKPAE
notes: MYH9 disease mutation; source: E. coli Rosetta 2, purified (Glutathione Sepharose 4B); not shown: GST, N-terminal, kept
B5: GST-LMM D1424G (domain or fragment, human, UniProt P35579 1212-1960, looked up)
chain: KANLEKAKQTLENERGELANEVKVLLQGKGDSEHKRKKVEAQLQELQVKFNEGERVRTELADKVTKLQVELDNVTGLLSQSDSKSSKLTKDFSALESQLQDTQELLQEENRQKLSLSTKLKQVEDEKNSFREQLEEEEEAKHNLEKQIATLHAQVADMKKKMEDSVGCLETAEEVKRKLQKDLEGLSQRHEEKVAAYDKLEKTKTRLQQELDGLLVDLDHQRQSACNLEKKQKKFDQLLAEEKTISAKYAEERDRAEAEAREKETKALSLARALEEAMEQKAELERLNKQFRTEMEDLMSSKDDVGKSVHELEKSKRALEQQVEEMKTQLEELEDELQATEDAKLRLEVNLQAMKAQFERDLQGRDEQSEEKKKQLVRQVREMEAELEDERKQRSMAVAARKKLEMDLKDLEAHIDSANKNRDEAIKQLRKLQAQMKDCMRELDDTRASREEILAQAKENEKKLKSMEAEMIQLQEELAAAERAKRQAQQERDELADEIANSSGKGALALEEKRRLEARIAQLEEELEEEQGNTELINDRLKKANLQIDQINTDLNLERSHAQKNENARQQLERQNKELKVKLQEMEGTVKSKYKASITALEAKIAQLEEQLDNETKERQAACKQVRRTEKKLKDVLLQVDDERRNAEQYKDQADKASTRLKQLKRQLEEAEEEAQRANASRRKLQRELEDATETADAMNREVSSLKNKLRRGDLPFVVPRRMARKGAGDGSDEEVDGKADGAEAKPAE
notes: as for B4
B6: GST-LMM D1424N (domain or fragment, human, UniProt P35579 1212-1960, looked up)
chain: KANLEKAKQTLENERGELANEVKVLLQGKGDSEHKRKKVEAQLQELQVKFNEGERVRTELADKVTKLQVELDNVTGLLSQSDSKSSKLTKDFSALESQLQDTQELLQEENRQKLSLSTKLKQVEDEKNSFREQLEEEEEAKHNLEKQIATLHAQVADMKKKMEDSVGCLETAEEVKRKLQKDLEGLSQRHEEKVAAYDKLEKTKTRLQQELDNLLVDLDHQRQSACNLEKKQKKFDQLLAEEKTISAKYAEERDRAEAEAREKETKALSLARALEEAMEQKAELERLNKQFRTEMEDLMSSKDDVGKSVHELEKSKRALEQQVEEMKTQLEELEDELQATEDAKLRLEVNLQAMKAQFERDLQGRDEQSEEKKKQLVRQVREMEAELEDERKQRSMAVAARKKLEMDLKDLEAHIDSANKNRDEAIKQLRKLQAQMKDCMRELDDTRASREEILAQAKENEKKLKSMEAEMIQLQEELAAAERAKRQAQQERDELADEIANSSGKGALALEEKRRLEARIAQLEEELEEEQGNTELINDRLKKANLQIDQINTDLNLERSHAQKNENARQQLERQNKELKVKLQEMEGTVKSKYKASITALEAKIAQLEEQLDNETKERQAACKQVRRTEKKLKDVLLQVDDERRNAEQYKDQADKASTRLKQLKRQLEEAEEEAQRANASRRKLQRELEDATETADAMNREVSSLKNKLRRGDLPFVVPRRMARKGAGDGSDEEVDGKADGAEAKPAE
notes: as for B4
B7: GST-LMM D1447H (domain or fragment, human, UniProt P35579 1212-1960, looked up)
chain: KANLEKAKQTLENERGELANEVKVLLQGKGDSEHKRKKVEAQLQELQVKFNEGERVRTELADKVTKLQVELDNVTGLLSQSDSKSSKLTKDFSALESQLQDTQELLQEENRQKLSLSTKLKQVEDEKNSFREQLEEEEEAKHNLEKQIATLHAQVADMKKKMEDSVGCLETAEEVKRKLQKDLEGLSQRHEEKVAAYDKLEKTKTRLQQELDDLLVDLDHQRQSACNLEKKQKKFHQLLAEEKTISAKYAEERDRAEAEAREKETKALSLARALEEAMEQKAELERLNKQFRTEMEDLMSSKDDVGKSVHELEKSKRALEQQVEEMKTQLEELEDELQATEDAKLRLEVNLQAMKAQFERDLQGRDEQSEEKKKQLVRQVREMEAELEDERKQRSMAVAARKKLEMDLKDLEAHIDSANKNRDEAIKQLRKLQAQMKDCMRELDDTRASREEILAQAKENEKKLKSMEAEMIQLQEELAAAERAKRQAQQERDELADEIANSSGKGALALEEKRRLEARIAQLEEELEEEQGNTELINDRLKKANLQIDQINTDLNLERSHAQKNENARQQLERQNKELKVKLQEMEGTVKSKYKASITALEAKIAQLEEQLDNETKERQAACKQVRRTEKKLKDVLLQVDDERRNAEQYKDQADKASTRLKQLKRQLEEAEEEAQRANASRRKLQRELEDATETADAMNREVSSLKNKLRRGDLPFVVPRRMARKGAGDGSDEEVDGKADGAEAKPAE
notes: as for B4

Molecular target: the molecule itself
Test: negative stain electron microscopy of filaments; self-assembly into filaments on dilution into low-salt buffer (10 mM phosphate, pH 7.4, 150 mM NaCl, 0.5 mM TCEP), on ice, 200 to 500 nM protein; stained with 1% uranyl acetate

Binding result, binds:
B1
B2
B3
B4
B5
B6
B7
